From article PMC5382271, “The conserved protein Seb1 drives transcription termination by binding RNA polymerase II and nascent RNA” (Nature Communications, 2017)
Residue numbers refer to the chain shown, from its start. Names and notes keep the numbering of the source. Where no end group is shown, it is not given here. FAM = 5'-fluorescein amidite

Experiments:
[1] = target: T1, SUMO-RRM WT (Schizosaccharomyces pombe, UniProt Q9UTE3 388-540); assay: fluorescence anisotropy; 25 mM Tris-HCl pH 8.0, 100 mM NaCl, 2 mM MgCl2, 1 mM DTT, 16.7% glycerol, 0.1% IGEPAL, 0.1 mg/ml tRNA, 2.5% RNasin, 25 C, 40 nM FAM-RNA; conditions: protein: recombinant; tags: N-terminal His6-SUMO; single strand
T1 sequence: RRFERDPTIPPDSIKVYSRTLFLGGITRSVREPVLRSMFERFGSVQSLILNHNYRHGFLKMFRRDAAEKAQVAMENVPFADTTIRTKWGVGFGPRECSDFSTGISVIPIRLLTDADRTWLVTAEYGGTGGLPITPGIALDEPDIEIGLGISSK

[2] = target: T2, SUMO-RRM F487A (Schizosaccharomyces pombe, UniProt Q9UTE3 388-540, F487A); assay: as above; conditions: protein: recombinant; tags: N-terminal His6-SUMO; single strand
T2 sequence: T1 sequence with F100A

[3] = target: T3, SUMO-RRM R504E (Schizosaccharomyces pombe, UniProt Q9UTE3 388-540, R504E); assay: as above; conditions: protein: recombinant; tags: N-terminal His6-SUMO; single strand
T3 sequence: T1 sequence with R117E

[4] = target: T4, SUMO-RRM R392E (Schizosaccharomyces pombe, UniProt Q9UTE3 388-540, R392E); assay: as above; conditions: protein: recombinant; tags: N-terminal His6-SUMO; single strand
T4 sequence: T1 sequence with R5E

[5] = target: T5, SUMO-RRM F449A (Schizosaccharomyces pombe, UniProt Q9UTE3 388-540, F449A); assay: as above; conditions: protein: recombinant; tags: N-terminal His6-SUMO; single strand
T5 sequence: T1 sequence with F62A

[6] = target: T6, SUMO-RRM R428E (Schizosaccharomyces pombe, UniProt Q9UTE3 388-540, R428E); assay: as above; conditions: protein: recombinant; tags: N-terminal His6-SUMO; single strand
T6 sequence: T1 sequence with R41E

[7] = target: T7, SUMO-RRM K402A (Schizosaccharomyces pombe, UniProt Q9UTE3 388-540, K402A); assay: as above; conditions: protein: recombinant; tags: N-terminal His6-SUMO; single strand
T7 sequence: T1 sequence with K15A

[8] = target: T8, Seb1-RRM388-540 (tag cleaved) (Schizosaccharomyces pombe, UniProt Q9UTE3 388-540); assay: as above; conditions: protein: recombinant; tags: His6-SUMO removed with 3C protease; single strand
T8 sequence: T1 sequence

[9] = target: T9, SUMO-RRM R450A (Schizosaccharomyces pombe, UniProt Q9UTE3 388-540, R450A); assay: as above; conditions: protein: recombinant; tags: N-terminal His6-SUMO; single strand
T9 sequence: T1 sequence with R63A

[10] = target: T10, SUMO-RRM S492A (Schizosaccharomyces pombe, UniProt Q9UTE3 388-540, S492A); assay: fluorescence anisotropy; text: mild effect on binding; 25 mM Tris-HCl pH 8.0, 100 mM NaCl, 2 mM MgCl2, 1 mM DTT, 16.7% glycerol, 0.1% IGEPAL, 0.1 mg/ml tRNA, 2.5% RNasin, 25 C, 40 nM FAM-RNA; conditions: protein: recombinant; tags: N-terminal His6-SUMO; single strand
T10 sequence: T1 sequence with S105A

[11] = target: T11, SUMO-RRM R472E (Schizosaccharomyces pombe, UniProt Q9UTE3 388-540, R472E); assay: fluorescence anisotropy; text: completely abolishes RNA binding; fitted Kd error exceeds value; 25 mM Tris-HCl pH 8.0, 100 mM NaCl, 2 mM MgCl2, 1 mM DTT, 16.7% glycerol, 0.1% IGEPAL, 0.1 mg/ml tRNA, 2.5% RNasin, 25 C, 40 nM FAM-RNA; conditions: protein: recombinant; tags: N-terminal His6-SUMO; single strand
T11 sequence: T1 sequence with R85E

[12] = target: T12, FAM-tagged two-repeat S2-phosphorylated CTD peptide; assay: fluorescence anisotropy (FA); conditions: chain shown with the change; read at the highest titration point, Seb1-CID 500 µM; parent: est. 110; read off a plot
T12 chain: YSPTSPSYSPTSPS

[13] = target: T13, FAM-tagged two-repeat S5-phosphorylated CTD peptide; assay: fluorescence anisotropy (FA); conditions: chain shown with the change; read at the highest titration point, Seb1-CID 500 µM; parent: est. 77; read off a plot
T13 chain: YSPTSPSYSPTSPS

[14] = target: T14, FAM-tagged two-repeat non-phosphorylated CTD peptide; assay: fluorescence anisotropy (FA); conditions: chain shown with the change; read at the highest titration point, Seb1-CID 500 µM; parent: est. 44; read off a plot
T14 chain: YSPTSPSYSPTSPS

[15] = target: FAM-tagged two-repeat S2-phosphorylated CTD peptide; assay: fluorescence polarisation; fluorescence anisotropy; Seb1-CID(1-152) titrated against 75 nM N-terminally FAM-tagged two-repeat CTD peptide; 25 mM HEPES pH 7.3, 200 mM NaCl, 1 mM EDTA; 25 °C
[16] = target: FAM-tagged two-repeat S5-phosphorylated CTD peptide; assay: as above
[17] = target: FAM-tagged two-repeat S7-phosphorylated CTD peptide; assay: as above
[18] = target: T15, Seb1-CID(1-152) (S. pombe, UniProt Q9UTE3 1-152); assay: as above; conditions: both partners purified
T15 construct: The full-length parent construct in pET41a(+) has a C-terminal His8 tag; also called CID WT; source: E. coli Rosetta, purified (Ni-NTA, size-exclusion chromatography)
T15 sequence (looked up): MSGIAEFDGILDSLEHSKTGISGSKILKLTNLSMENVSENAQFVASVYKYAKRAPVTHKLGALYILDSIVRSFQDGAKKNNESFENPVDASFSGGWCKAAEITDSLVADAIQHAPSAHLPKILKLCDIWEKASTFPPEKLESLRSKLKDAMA

Binder: AUUAGUAAAA (ssRNA) [FAM-AUUAGUAAAA RNA]
- Kd [1]: 1.72 ± 0.06 µM
- Kd [2]: 25.6 ± 15.7 µM
- Kd [3]: 2.37 ± 0.17 µM
- Kd [4]: 3.33 ± 0.53 µM
- Kd [5]: 1.99 ± 0.19 µM
- Kd [6]: 2.87 ± 0.85 µM
- Kd [7]: 2.49 ± 0.33 µM
- Kd [8]: 1.84 ± 0.63 µM
- Kd [9]: 1.91 ± 0.71 µM
- Kd [10]: 4.2 ± 0.56 µM
- Kd [11]: 17.8 ± 27.5 µM

B1: Seb1-CID(1-152), Q9UTE3 K121E (protein)
chain: T15 sequence (looked up) with K121E
- response [12]: 47
- response [13]: 47
- response [14]: 34

B2: Seb1-CID(1-152), Q9UTE3 Y64K (protein)
chain: T15 sequence (looked up) with Y64K
- response [12]: 65
- response [13]: 40
- response [14]: 20

B3: Seb1-CID(1-152), Q9UTE3 S22D; K25E; K124E (protein)
chain: T15 sequence (looked up) with S22D, K25E, K124E
- response [12]: 22
- response [13]: 27
- response [14]: 33

B4: Seb1-CID(1-152) (domain or fragment)
chain: T15 sequence (looked up)
- Kd [15]: 23.4 µM
- Kd [16]: 83.7 µM
- Kd [17]: 242 µM

B5: Seb1-CID(1-152), Q9UTE3 K124E (protein)
chain: T15 sequence (looked up) with K124E
- response [12]: 59
- response [13]: 58
- response [14]: 56

B6: Seb1-CID(1-152), Q9UTE3 S22D; K25E (protein)
chain: T15 sequence (looked up) with S22D, K25E
- response [12]: 72
- response [13]: 46
- response [14]: 28

Binder: {FAM}-YSPTSPSYSPTSPS [FAM-tagged two-repeat non-phosphorylated CTD peptide]
- Kd [18]: > 1000 µM
